According to patent US20190300590A1:
*1 amine or outer side, *2 acyl side, *3 side chain or, on linkers, in order; H or OH if unused. Bridges are numbered along the chain shown (N, C = ends). Primed or numbered codes have the meaning given here. [ ]: non-standard residue; d: D form. Phe(4-(2-acetylaminoethoxy))″ = 4-(2-acetylaminoethoxy)phenylalanine, CC(=O)NCCOc1ccc(C[C@H](N[*:1])C(=O)[*:2])cc1; Phe(4-OMe)(4) = O-methyl-L-tyrosine, COc1ccc(C[C@H](N[*:1])C(=O)[*:2])cc1; 2Nal = N[C@@H](Cc1ccc2ccccc2c1)C(=O)O; AEF = NCCOc1ccc(C[C@H](N)C(=O)O)cc1; Cit = NC(=O)NCCC[C@H](N)C(=O)O; αMeOrn = C[C@](N)(CCCN)C(=O)O; Pen = CC(C)(S)[C@H](N)C(=O)O; αMeK = C[C@](N)(CCCCN)C(=O)O; Orn = NCCC[C@H](N)C(=O)O; Dab = NCC[C@H](N)C(=O)O; Abu = CC[C@H](N)C(=O)O; Dap = NC[C@H](N)C(=O)O; Aib = CC(C)(N)C(=O)O

Legend:
IL23R_huFC (human) [1] = target: IL23R_huFC (human) (UniProt Q5VWK5); assay: human ELISA vs IL-23
Target sequence in this assay (Q5VWK5 24-353): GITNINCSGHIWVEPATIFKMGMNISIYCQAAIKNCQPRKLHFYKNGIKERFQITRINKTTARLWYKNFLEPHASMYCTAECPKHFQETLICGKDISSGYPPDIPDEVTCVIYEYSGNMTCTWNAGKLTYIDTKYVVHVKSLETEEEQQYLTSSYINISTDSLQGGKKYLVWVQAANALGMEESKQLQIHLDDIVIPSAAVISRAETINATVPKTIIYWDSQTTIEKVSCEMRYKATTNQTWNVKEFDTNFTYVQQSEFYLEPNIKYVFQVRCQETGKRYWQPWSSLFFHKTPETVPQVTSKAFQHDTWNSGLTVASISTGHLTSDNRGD

IL23R_huFC (human) [2] = target: IL23R_huFC (human) (UniProt Q5VWK5); assay: IL23-IL23R competitive binding ELISA
Target sequence in this assay (Q5VWK5 24-353 limits assumed): as the sequence (Q5VWK5 24-353) above

Rat IL-23R_huFC (rat) = Rat IL-23R_huFC (rat) (UniProt F1LX96); assay: rat IL-23R competitive binding ELISA

| IC50 (IL23R_huFC (human) [1]) [nM] | IC50 (IL23R_huFC (human) [2]) [nM] | IC50 (Rat IL-23R_huFC (rat)) [nM] | Binder |
| --- | --- | --- | --- |
| 25 to 100 |  |  | Ac-[Abu]QTWQC[AEF][2Nal][Orn][Dap]NG-NH2 (thioether 1-6) [Ac-Cyclo-[[Abu]-QTWQC]-[Phe[4-(2-aminoethoxy)]]-[2-Nal]-[Orn]-[Dap]-NG-NH2] |
|  | < 10 | 25 to 100 | Ac-[Pen][Dap]TWQ[Pen][AEF][2Nal][αMeK]ENG-NH2 (disulfide 1-6 (inferred)) [Ac-[Pen]-[Dap]-TWQ-[Pen]-[Phe[4-(2-aminoethoxy)]-[2-Nal]-[α-MeLys]-ENG-NH2] |
| 10 to 25 |  |  | Ac-[Abu]QTWQC[AEF][2Nal][Cit][Dap]NG-NH2 (thioether 1-6) [Ac-Cyclo-[[Abu]-QTWQC]-[Phe[4-(2-aminoethoxy)]]-[2-Nal]-[Cit]-[Dap]-NG-NH2] |
|  | < 10 |  | XQTWQXFXXKNN (Ac; Pen-Pen disulfide; Phe[4-(2-aminoethoxy)]; 2-Nal; Aib; Lys(Ac); NH2) [Ac-[Pen]-QTWQ-[Pen]-[Phe[4-(2-aminoethoxy)]-[2-Nal]-Aib-[Lys(Ac)]-NN-NH2] |
|  | 100 to 1000 |  | Ac-[Pen][αMeOrn]TWQ[Pen][AEF][2Nal][αMeK]ENG-NH2 (disulfide 1-6 (inferred)) [Ac-[Pen]-[α-MeOrn]-TWQ[Pen]-[Phe[4-(2-aminoethoxy)]-[2-Nal]-[α-MeLys]-ENG-NH2] |
|  | 100 to 1000 | 100 to 1000 | Ac-[Pen]QTWQ[Pen][2Nal][2Nal][αMeK]ENG-NH2 (disulfide 1-6; SMILES CC(=O)N[C@@H]1C(=O)N[C@@H](CCC(N)=O)C(=O)N[C@@H]([C@@H](C)O)C(=O)N[C@@H](Cc2c[nH]c3ccccc23)C(=O)N[C@@H](CCC(N)=O)C(=O)N[C@H](C(=O)N[C@@H](Cc2ccc3ccccc3c2)C(=O)N[C@@H](Cc2ccc3ccccc3c2)C(=O)N[C@@](C)(CCCCN)C(=O)N[C@@H](CCC(=O)O)C(=O)N[C@@H](CC(N)=O)C(=O)NCC(N)=O)C(C)(C)SSC1(C)C) [Ac-[Pen]-QTWQ-[Pen]-[2-Nal]-[2-Nal]-[α-MeLys]-ENG-NH2] |
|  | 100 to 1000 | 100 to 1000 | XQTWQXYXXENG (Ac; Pen-Pen disulfide; 1-Nal; α-MeOrn; NH2) [Ac-[Pen]-QTWQ-[Pen]-Y-[1-Nal]-[α-MeOrn]-ENG-NH2] |
|  | < 10 | 10 to 25 | XNTWQXFXXKNN (Ac; Pen-Pen disulfide; Phe(4-CONH2); 2-Nal; Acvc; NH2; DIG linker joins the two subunits) [[Ac-[Pen]-NTWQ-[Pen]-[Phe(4-CONH2)]-[2-Nal]-[Acvc]-KNN-NH2]2DIG] |
| 10 to 25 |  |  | Ac-[Abu]QTWQC[AEF][2Nal][Aib]E[Dap](Ac)G-NH2 (thioether 1-6) [Ac-Cyclo-[[Abu]-QTWQC]-[Phe[4-(2-aminoethoxy)]]-[2-Nal]-[Aib]-E-[Dap(Ac)]-G-NH2] |
|  | 10 to 25 |  | XQTWQXFXXENN (Ac; Pen-Pen disulfide; Phe[4-(2-acetylaminoethoxy)]; 2-Nal; Aib; NH2) [Ac-[Pen]-QTWQ-[Pen]-[Phe[4-(2-acetylaminoethoxy)]-[2-Nal]-[Aib]-ENN-NH2] |
| < 10 |  |  | Ac-[Abu]QTWQC[AEF][2Nal][Aib]E[Dab](Ac)G-NH2 (thioether 1-6) [Ac-Cyclo-[[Abu]-QTWQC]-[Phe[4-(2-aminoethoxy)]]-[2-Nal]-[Aib]-E-[Dab(Ac)]-G-NH2] |
|  | 10 to 25 |  | Ac-[Pen][Dap](Ac)TWQ[Pen][Phe(4-(2-acetylaminoethoxy))″][2Nal][αMeK](Ac)ENG-NH2 (disulfide 1-6 (inferred)) [Ac-[Pen]-Dap(Ac)TWQ-[Pen]-[Phe[4-(2-acetylaminoethoxy)]-[2-Nal]-[α-MeLys(Ac)]-ENG-NH2] |
|  | < 10 |  | XQTWQXFXXENN (Ac; Pen-Pen disulfide; Phe[4-(2-aminoethoxy)]; 2-Nal; Aib; NH2) [Ac-[Pen]-QTWQ-[Pen]-[Phe[4-(2-aminoethoxy)]-[2-Nal]-[Aib]-ENN-NH2] |
|  | < 10 |  | XQTWQXFXXKNN (Ac; Pen-Pen disulfide; Phe[4-(2-acetylaminoethoxy)]; 2-Nal; Aib; Lys(Ac); NH2) [Ac-[Pen]-QTWQ-[Pen]-[Phe[4-(2-acetylaminoethoxy)]-[2-Nal]-[Aib]-[Lys(Ac)]-NN-NH2] |
| 25 to 100 |  |  | Ac-[Abu]QTWQC[AEF][2Nal][Orn][Dap](Ac)NG-NH2 (thioether 1-6) [Ac-Cyclo-[[Abu]-QTWQC]-[Phe[4-(2-aminoethoxy)]]-[2-Nal]-[Orn]-[Dap(Ac)]-NG-NH2] |
|  | < 10 | 10 to 25 | XNTWQXFXXKNN (Ac; Pen-Pen disulfide; Phe(4-CONH2); 2-Nal; Aib; NH2; DIG linker joins the two subunits) [[Ac-[Pen]-NTWQ-[Pen]-[Phe(4-CONH2)]-[2-Nal]-[Aib]-KNN-NH2]2DIG] |
|  | < 10 | < 10 | XNTWQXFXXKNN (Ac; Pen-Pen disulfide; Phe[4-(2-aminoethoxy)]; 2-Nal; Aib; Lys(Ac); NH2) [Ac-[Pen]-NTWQ-[Pen]-[Phe[4-(2-aminoethoxy)]-[2-Nal]-[Aib]-[Lys(Ac)]-NN-NH2] |
|  | 100 to 1000 |  | XQTWQXFXXKNG (Ac; Pen-Pen disulfide; Phe(4-OMe); 2-Nal; α-MeOrn; Lys(Ac); NH2) [Ac-[Pen]-QTWQ-[Pen]-[Phe(4-OMe)]-[2-Nal]-[α-MeOrn]-[Lys(Ac)]-NG-NH2] |
| 100 to 1000 |  |  | Ac-[Abu]QTWQC[Phe(4-OMe)(4)][2Nal][Orn][Dap]NG-NH2 (thioether 1-6) [Ac-Cyclo-[[Abu]-QTWQC]-[Phe(4-OMe)]-[2-Nal]-[Orn]-[Dap]-NG-NH2] |
|  | 100 to 1000 |  | Ac-[Pen][αMeOrn](Ac)TWQ[Pen][Phe(4-(2-acetylaminoethoxy))″][2Nal][αMeK](Ac)ENG-NH2 (disulfide 1-6 (inferred)) [Ac-[Pen]-[α-MeOrn(Ac)]-TWQ-[Pen]-[Phe[4-(2-acetylaminoethoxy)]-[2-Nal]-[α-MeLys(Ac)]-ENG-NH2] |
|  |  | 10 to 25 | XNTWQXFXXKNA (Ac; Pen-Pen disulfide; Phe[4-(2-aminoethoxy)]; 2-Nal; Aib; Lys(Ac); βAla; NH2) [Ac-[Pen]-NTWQ-[Pen]-[Phe[4-(2-aminoethoxy)]-[2-Nal]-[Aib]-[Lys(Ac)]-N-[βAla]-NH2] |
|  | 25 to 100 | 100 to 1000 | XQTWQXYXXENG (Ac; Pen-Pen disulfide; 2-Nal; α-MeOrn; NH2) [Ac-[Pen]-QTWQ-[Pen]-Y-[2-Nal]-[α-MeOrn]-ENG-NH2] |
